From paper PMC9477280 (PLoS Pathogens, 2022)

Tests used:
EPEC FliC = target: T1, EPEC FliC (Escherichia coli EPEC, likely O127:H6 …, UniProt B7USU2); assay: ELISA; dilution ELISA; purified antigen coated directly on Nunc Maxisorp wells, typically 1 μg/mL in PBS overnight at 4°C, blocked with 4% milk in PBS 0.1% Tween; thioredoxin/VHH/E-tag from 125 nM in 1:5 serial dilutions, 1 h 37°C; detected with HRP anti-E-tag; EC50 estimates (apparent affinity); Trace = EC50 >125 nM, poor but detectable; conditions: both partners purified
T1 construct: also called EPEC rFliC; recombinant FliC
T1 sequence (B7USU2 2-548): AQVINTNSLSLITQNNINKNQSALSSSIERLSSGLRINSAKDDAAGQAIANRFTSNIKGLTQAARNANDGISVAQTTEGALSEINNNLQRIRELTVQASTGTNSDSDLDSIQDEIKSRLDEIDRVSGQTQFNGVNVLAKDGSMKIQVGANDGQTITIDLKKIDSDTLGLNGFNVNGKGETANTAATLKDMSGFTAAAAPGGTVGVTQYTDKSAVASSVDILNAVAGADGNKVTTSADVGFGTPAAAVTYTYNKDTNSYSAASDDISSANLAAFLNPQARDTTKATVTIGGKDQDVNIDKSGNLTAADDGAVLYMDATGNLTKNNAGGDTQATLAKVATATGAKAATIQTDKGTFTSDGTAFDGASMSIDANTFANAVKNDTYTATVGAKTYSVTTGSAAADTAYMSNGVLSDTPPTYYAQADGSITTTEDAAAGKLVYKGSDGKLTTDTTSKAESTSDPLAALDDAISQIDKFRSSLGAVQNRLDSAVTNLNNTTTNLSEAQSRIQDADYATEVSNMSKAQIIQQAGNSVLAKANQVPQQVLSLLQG

EPEC flagella = EPEC flagella (Escherichia coli O127:H6 E2348/69 (EPEC), UniProt B7USU2); assay: as above; conditions: both partners purified
Sequence of EPEC flagella (B7USU2 2-548): as above

[1] = target: T2, MC1061 expressing EHEC intimin (Escherichia coli O157:H7 EDL933 (EHEC), UniProt P43261); assay: ELISA; dilution ELISA with intimin displayed on the surface of E. coli MC1061 as antigen; soluble thioredoxin/VHH/E-tag; EC50 estimates (apparent affinity); conditions: one partner purified
T2 construct: also called E. coli 1061/pInt (EHEC); EHEC intimin expressed on the surface of strain MC1061
T2 sequence (P43261 40-934): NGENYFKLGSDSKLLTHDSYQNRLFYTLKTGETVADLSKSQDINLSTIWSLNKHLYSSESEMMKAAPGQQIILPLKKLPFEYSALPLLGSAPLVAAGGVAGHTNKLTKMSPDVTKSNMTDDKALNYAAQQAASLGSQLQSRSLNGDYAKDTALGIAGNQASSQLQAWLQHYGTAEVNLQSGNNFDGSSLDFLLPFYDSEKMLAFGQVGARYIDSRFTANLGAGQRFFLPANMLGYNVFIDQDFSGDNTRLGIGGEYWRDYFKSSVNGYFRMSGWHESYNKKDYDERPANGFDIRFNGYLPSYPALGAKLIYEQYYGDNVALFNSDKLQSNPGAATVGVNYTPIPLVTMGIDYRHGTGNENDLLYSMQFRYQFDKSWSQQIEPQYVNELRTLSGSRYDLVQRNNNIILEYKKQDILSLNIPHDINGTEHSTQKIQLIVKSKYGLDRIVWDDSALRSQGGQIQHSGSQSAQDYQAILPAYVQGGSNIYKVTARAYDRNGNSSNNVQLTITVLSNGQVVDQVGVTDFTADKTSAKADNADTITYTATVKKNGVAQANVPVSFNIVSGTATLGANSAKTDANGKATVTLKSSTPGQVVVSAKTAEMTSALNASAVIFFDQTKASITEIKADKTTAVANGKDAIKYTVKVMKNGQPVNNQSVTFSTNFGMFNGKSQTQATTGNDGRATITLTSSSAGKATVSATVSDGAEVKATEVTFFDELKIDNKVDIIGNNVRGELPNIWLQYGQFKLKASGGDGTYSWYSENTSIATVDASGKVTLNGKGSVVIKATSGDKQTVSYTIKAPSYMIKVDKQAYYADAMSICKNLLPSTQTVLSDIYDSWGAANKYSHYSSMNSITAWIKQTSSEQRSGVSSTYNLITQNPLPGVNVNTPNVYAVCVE

MC1061 /EPEC intimin = target: T3, MC1061 /EPEC intimin (Escherichia coli O127:H6, JPN15 …, UniProt P19809); assay: as above; conditions: one partner purified
T3 construct: also called E. coli 1061/pInt (EPEC); EPEC intimin expressed on the surface of strain MC1061
T3 sequence (P19809 42-939): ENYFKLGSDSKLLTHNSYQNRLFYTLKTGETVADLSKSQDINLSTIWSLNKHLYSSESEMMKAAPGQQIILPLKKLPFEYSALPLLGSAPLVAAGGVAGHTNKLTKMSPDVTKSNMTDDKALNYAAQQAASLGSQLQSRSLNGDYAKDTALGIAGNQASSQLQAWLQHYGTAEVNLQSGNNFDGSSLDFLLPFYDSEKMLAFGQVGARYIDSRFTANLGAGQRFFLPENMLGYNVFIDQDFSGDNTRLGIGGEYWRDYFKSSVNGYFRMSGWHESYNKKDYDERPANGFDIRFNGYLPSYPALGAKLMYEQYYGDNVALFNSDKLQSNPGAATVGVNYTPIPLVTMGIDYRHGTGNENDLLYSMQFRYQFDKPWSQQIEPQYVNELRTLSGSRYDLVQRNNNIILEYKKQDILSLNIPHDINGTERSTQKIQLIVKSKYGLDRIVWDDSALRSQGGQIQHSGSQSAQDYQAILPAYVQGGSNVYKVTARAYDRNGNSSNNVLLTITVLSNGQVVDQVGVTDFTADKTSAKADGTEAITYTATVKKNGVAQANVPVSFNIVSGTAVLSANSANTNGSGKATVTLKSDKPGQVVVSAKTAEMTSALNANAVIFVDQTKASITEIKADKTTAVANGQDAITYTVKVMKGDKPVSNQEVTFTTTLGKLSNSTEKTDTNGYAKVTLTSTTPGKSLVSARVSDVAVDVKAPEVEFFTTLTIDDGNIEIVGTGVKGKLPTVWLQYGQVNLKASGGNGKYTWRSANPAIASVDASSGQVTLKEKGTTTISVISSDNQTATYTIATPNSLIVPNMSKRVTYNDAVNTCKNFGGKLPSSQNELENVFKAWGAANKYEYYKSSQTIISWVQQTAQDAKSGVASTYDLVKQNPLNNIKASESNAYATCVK

C. rodentium intimin = C. rodentium intimin (Citrobacter rodentium DBS100, UniProt Q07591); assay: ELISA; EC50 told in footnote g of Table 1; form of the C. rodentium intimin antigen not stated
Sequence of C. rodentium intimin (Q07591 42-936): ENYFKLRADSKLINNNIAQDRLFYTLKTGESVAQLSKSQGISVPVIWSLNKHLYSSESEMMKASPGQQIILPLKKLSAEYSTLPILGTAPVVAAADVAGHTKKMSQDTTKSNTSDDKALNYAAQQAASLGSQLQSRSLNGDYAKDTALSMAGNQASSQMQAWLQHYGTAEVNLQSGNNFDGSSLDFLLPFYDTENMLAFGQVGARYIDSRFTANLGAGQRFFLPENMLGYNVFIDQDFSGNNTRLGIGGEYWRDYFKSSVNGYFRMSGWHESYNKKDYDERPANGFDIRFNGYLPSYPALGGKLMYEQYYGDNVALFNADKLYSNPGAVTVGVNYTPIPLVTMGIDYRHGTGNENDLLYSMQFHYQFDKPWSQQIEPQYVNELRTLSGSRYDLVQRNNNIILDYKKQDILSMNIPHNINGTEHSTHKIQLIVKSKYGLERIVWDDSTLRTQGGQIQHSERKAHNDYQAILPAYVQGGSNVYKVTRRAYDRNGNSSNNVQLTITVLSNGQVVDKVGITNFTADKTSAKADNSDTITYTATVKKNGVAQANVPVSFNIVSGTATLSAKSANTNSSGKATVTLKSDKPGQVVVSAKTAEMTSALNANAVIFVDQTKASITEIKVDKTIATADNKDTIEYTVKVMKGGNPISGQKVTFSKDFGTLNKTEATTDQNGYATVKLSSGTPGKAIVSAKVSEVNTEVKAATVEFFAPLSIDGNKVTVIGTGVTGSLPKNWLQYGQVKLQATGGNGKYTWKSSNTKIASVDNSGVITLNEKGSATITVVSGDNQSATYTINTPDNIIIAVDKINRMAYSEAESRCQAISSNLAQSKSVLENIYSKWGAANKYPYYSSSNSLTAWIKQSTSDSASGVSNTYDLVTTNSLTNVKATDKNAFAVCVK

EPEC intimin = target: T4, EPEC intimin (Escherichia coli O127:H6 E2348/69 (EPEC), UniProt P19809); assay: ELISA; dilution ELISA; purified antigen coated directly on Nunc Maxisorp wells, typically 1 μg/mL in PBS overnight at 4°C, blocked with 4% milk in PBS 0.1% Tween; thioredoxin/VHH/E-tag from 125 nM in 1:5 serial dilutions, 1 h 37°C; detected with HRP anti-E-tag; EC50 estimates (apparent affinity); Trace = EC50 >125 nM, poor but detectable; conditions: both partners purified
T4 construct: also called recombinant intimin (EPEC)

EHEC intimin = target: T5, EHEC intimin (Escherichia coli O157:H7 EDL933 (EHEC), UniProt P43261); assay: as above; conditions: both partners purified
T5 construct: also called recombinant intimin (EHEC)
T5 sequence (P43261 40-934): as the sequence (P43261 40-934) above

B1: JUV-C4 (VHH)
VHH: TGGGLVQAGGSLTLSCVASGRAVSSFAMGWFRQIPGREQRDFVAFIGDYGLTTYYANSVKGRFTISRSNAENTLYLQMNSLEFEDAAVYFCAARDAYRSGTTNPSAYDYWGQGTQVTVSS
notes: also called αFla-2; JVE-4 (vector name); not shown: thioredoxin, N-terminal, kept; E-tag, C-terminal, kept
Q: For B1, which EC50 (EPEC FliC) is on record?
A: The EC50 was 0.3 nM.

Q: And the EC50 (EPEC flagella)?
A: The EC50 was 1 nM.

B2: JWU-D8 (VHH)
VHH: TGGGLVQPGGSLRLSCAASGFYFSGYWMHWVRQVQGQGLKWVSGINIDDTKSSYTDSVKGRFTISRDNTKNTLYLQMDSLQPEDTGVYYCARDRRAGQISGGYDPDYRGQGTQVTVSS
notes: also called αInt-14; JWZ-9 (vector name)
Q: What does the source list for B2?
A: binding result [1]: binds; EC50 (MC1061 /EPEC intimin): 0.5 nM

B3: JXN-E2 (VHH)
VHH: TGGLVPPGGSLQLSCTSSGFFLDYLGVAWFRQAPGNEREGVSCIDYTGDNIAYASSMKGRATISRDKDANTVTLEMNGLKPEDTAVYYCAAHRSATTYADGKYRCPLENEYDYWGQGIQVTVSS
notes: also called JXS-2 (vector name); not shown: thioredoxin, N-terminal, kept; E-tag, C-terminal, kept
Q: How did the EC50 (C. rodentium intimin) turn out when B3 was run?
A: Its EC50 is about 0.5 nM.

Q: Does B3 bind (EPEC intimin)?
A: Result: no binding (tested: 125 nM (highest VHH concentration))

Q: Does B3 bind (EHEC intimin)?
A: Result: no binding (tested: 125 nM (highest VHH concentration))

Q: Does B3 bind (MC1061 /EPEC intimin)?
A: Result: no binding (tested: 125 nM (highest VHH concentration))

B4: JWU-G8 (VHH)
VHH: SGGGLVQPGGSLRLSCATSGFYFAGYWMHWVRQVPGQGLEWVSGIDLGSTMLNYRDSVKGRFSISRDNAKNTVYLQMHSLKPEDTALYFCARDRRAGATSGGYDPDVRGQGTQVTVSS
notes: also called αInt-17; JWZ-15 (vector name)
Q: Does B4 bind [1]?
A: Result: binds

Q: Does B4 bind (EHEC intimin)?
A: Result: no binding (tested: 125 nM (highest VHH concentration))

Q: What about the EC50 (MC1061 /EPEC intimin) of the same binder?
A: The EC50 was 0.5 nM.
